We go through 167 variants from the RNAGym collection of RNA variant scans (doi:10.7554/elife.90254).

The chains are these.
B1: OR4K15 (parent)
chain: GUUAACGGUCAUAGGCCAUGGAAACUAGGAGCACCAUUUCGCUGCCAGUGAAGAAAUGAACAAAGAAAAUCUGGGCCAGGCAGGCAUCAAAAGAAAUAGUCUUGCGCUCAACCAGAAAGUCUGUAAUCAUUUUAAGGGUA

The variants in the data set derive from B1. Kind of data set: self-cleavage, relative activity (ratio to wild type); higher = more cleavage; in vitro, sequencing; the parent is a self-cleaving ribozyme.
As to A78G A118U, the self-cleavage is 0.21.

Take A59U G79A: the self-cleavage was 0.14.

A95G U133C: the self-cleavage was determined as 1.23.

Consider G1A A92G, for which the self-cleavage is 1.66.

C76U U108C: the self-cleavage was 0.

Take A36G A98U: the self-cleavage stood at 2.12.

As to U122A U127C, the self-cleavage was 0.98.

On to A63U A82G, for which the self-cleavage came out at 0.36.

For the variant A27G A117G, the self-cleavage was 1.15.

C6A U9C: the self-cleavage came out at 1.47.

C32U A63G: the self-cleavage is 1.39.

Turning to A18G G41A, the self-cleavage amounted to 1.53.

For the variant A126G U133C, the self-cleavage was found to be 1.2.

As to C34A U103C, the self-cleavage amounted to 0.77.

On to U43C A62C, for which the self-cleavage was found to be 1.57.

For the variant A11G U131G, the self-cleavage turned out to be 1.52.

A60G A67C: the self-cleavage stood at 0.77.

A60G A67U: the self-cleavage was 2.01.

Turning to A4U A13G, the self-cleavage came out at 1.23.

For the variant C45A A51G, the self-cleavage is 1.35.

Regarding A33C U39A, the self-cleavage stood at 2.06.

As for A4G A27G, the self-cleavage came to 1.52.

On to A91G U132A, for which the self-cleavage stood at 0.69.

Turning to A51U A111G, the self-cleavage was 0.04.

As for A78U A140G, the self-cleavage turned out to be 0.34.

In the case of A22U A118G, the self-cleavage turned out to be 1.13.

With A91G A117G, the self-cleavage came out at 1.48.

For the variant A27G G104A, the self-cleavage is 0.02.

Consider U100C A118G, for which the self-cleavage amounted to 1.11.

As for U2C A129U, the self-cleavage worked out at 0.84.

Take U38A U57C: the self-cleavage was 0.69.

A78G A89U: the self-cleavage stood at 0.24.

Consider U2A G14C, for which the self-cleavage was found to be 0.7.

As to A54G G106A, the self-cleavage is 0.02.

Turning to U12C A59U, the self-cleavage was 0.65.

As for A4G A55U, the self-cleavage worked out at 1.33.

With U2A G106A, the self-cleavage is 0.06.

Consider G84U A126G, for which the self-cleavage amounted to 0.45.

In the case of A11G A33C, the self-cleavage came out at 1.98.

Turning to G84C, the self-cleavage amounted to 0.29.

As for A78G G106U, the self-cleavage turned out to be 0.01.

Regarding A47G U100C, the self-cleavage was 1.85.

Turning to A51G A134C, the self-cleavage is 1.4.

As for U49C G99U, the self-cleavage is 0.28.

In the case of G50U U103C, the self-cleavage worked out at 1.23.

On to A33G A66U, for which the self-cleavage is 0.35.

C77U A116G: the self-cleavage was 1.22.

As for G53A A78G, the self-cleavage came to 0.22.

In the case of A13U A82U, the self-cleavage turned out to be 0.24.

Consider U57C G74U, for which the self-cleavage was 0.39.

For U49A A96G, the self-cleavage amounted to 1.12.

Consider A18G A117G, for which the self-cleavage worked out at 0.59.

As for A24U U97G, the self-cleavage is 1.9.

As to G14A A78U, the self-cleavage amounted to 0.22.

With U108C C113A, the self-cleavage was found to be 0.01.

With A33C U127C, the self-cleavage was determined as 1.38.

With A69U A110G, the self-cleavage amounted to 0.09.

For G44U U70A, the self-cleavage was 0.

A33G U38C: the self-cleavage was 1.41.

With C6U A114U, the self-cleavage turned out to be 0.07.

Take U103C U120C: the self-cleavage is 0.4.

As to A62G A135G, the self-cleavage worked out at 2.19.

As for A36C U127A, the self-cleavage came out at 2.57.

On to A47G U124C, for which the self-cleavage amounted to 0.32.

As for U97A A117G, the self-cleavage is 2.09.

A13G A118C: the self-cleavage was determined as 0.41.

With U38A G93A, the self-cleavage was determined as 2.09.

As to A24G A78U, the self-cleavage stood at 0.39.

Take U3C A52U: the self-cleavage came to 1.8.

Turning to A125U U133C, the self-cleavage was found to be 2.54.

Consider A13U G73A, for which the self-cleavage stood at 0.16.

For the variant A30C A140G, the self-cleavage came to 1.69.

In the case of U87A A89G, the self-cleavage stood at 0.91.

On to C16G U124A, for which the self-cleavage is 0.77.

As to G74A U100C, the self-cleavage amounted to 0.45.

With A11G A116G, the self-cleavage turned out to be 0.92.

Consider U100G U108A, for which the self-cleavage was 0.02.

Regarding A67G G106A, the self-cleavage came out at 0.02.

Take U43C A59G: the self-cleavage is 0.68.

A62G U139A: the self-cleavage amounted to 1.84.

With G14A A69G, the self-cleavage was 1.03.

A59G A89G: the self-cleavage is 1.09.

For A30G A114G, the self-cleavage is 0.23.

Regarding U72G U120A, the self-cleavage was found to be 0.19.

Take C128U U130C: the self-cleavage was found to be 0.55.

On to U2C A92G, for which the self-cleavage amounted to 0.98.

Take A118G A126U: the self-cleavage worked out at 1.22.

On to A11G U39A, for which the self-cleavage is 0.88.

Take U19C G48U: the self-cleavage is 2.78.

Regarding U9C A134G, the self-cleavage came out at 1.55.

Regarding A63U, the self-cleavage stood at 0.82.

Regarding A90U A118G, the self-cleavage is 1.24.

Turning to A69G A140G, the self-cleavage was found to be 1.93.

In the case of A30G U124C, the self-cleavage was 0.74.

For A11G C32G, the self-cleavage was found to be 0.61.

Take A24G: the self-cleavage turned out to be 1.09.

U87C A118C: the self-cleavage was determined as 0.4.

As for U122A U130C, the self-cleavage came out at 0.8.

On to U43C A134U, for which the self-cleavage stood at 2.04.

In the case of C45G U100C, the self-cleavage turned out to be 1.37.

Take A60C U120C: the self-cleavage was 0.98.

For G84A U122C, the self-cleavage is 2.09.

U9A U72C: the self-cleavage is 0.16.

Take G99A U131C: the self-cleavage came out at 0.42.

On to C16U U57C, for which the self-cleavage was found to be 1.14.

U12C G31U: the self-cleavage stood at 1.48.

For the variant A59G U70C, the self-cleavage worked out at 0.84.

As for U12C A135C, the self-cleavage came to 0.84.

In the case of A33U A82U, the self-cleavage turned out to be 0.23.

Regarding A60C A117U, the self-cleavage came out at 0.56.

For the variant U103G, the self-cleavage was 0.03.

With A30G U43A, the self-cleavage stood at 1.01.

Turning to A54U A126G, the self-cleavage stood at 1.6.

On to U3A U100C, for which the self-cleavage worked out at 1.63.

As for A117G U132A, the self-cleavage came to 1.62.

Take A27G A92C: the self-cleavage came out at 1.36.

For the variant A27U A90G, the self-cleavage was 0.74.

For the variant A30G C32U, the self-cleavage came to 0.93.

For A90G A116G, the self-cleavage was 0.8.

Regarding A18G A94U, the self-cleavage came to 1.4.

C76U A140G: the self-cleavage was found to be 0.12.

Turning to G44U A63G, the self-cleavage came to 1.46.

Consider C71A, for which the self-cleavage turned out to be 0.61.

Take A5G A82G: the self-cleavage was determined as 0.68.

Regarding A82U A96G, the self-cleavage worked out at 0.24.

Consider U2G A51G, for which the self-cleavage amounted to 0.95.

Consider A60G U131C, for which the self-cleavage was 0.15.

Take U43C A78C: the self-cleavage was determined as 0.29.

On to U38C C109U, for which the self-cleavage is 0.26.

As for A59G C101U, the self-cleavage stood at 0.26.

With C25A U122A, the self-cleavage was determined as 0.94.

With A23U U102C, the self-cleavage turned out to be 1.7.

Regarding A92G U127C, the self-cleavage is 0.9.

A55G A129G: the self-cleavage was found to be 0.99.

For the variant A118U, the self-cleavage was 0.61.

As to A51U G106A, the self-cleavage came out at 0.03.

With G115A U131C, the self-cleavage worked out at 0.04.

For the variant A90G C105U, the self-cleavage was 0.04.

As for U37G U87A, the self-cleavage was 1.38.

Consider A33U U127A, for which the self-cleavage amounted to 2.74.

Regarding U97A A125G, the self-cleavage came out at 0.86.

Turning to A96G A117U, the self-cleavage came to 0.89.

A60G U103C: the self-cleavage is 0.78.

Regarding A18C U43C, the self-cleavage is 1.44.

Take A67G A78G: the self-cleavage was found to be 0.21.

For U19G C40A, the self-cleavage stood at 1.04.

Regarding C46U U72A, the self-cleavage was found to be 0.14.

On to A56G U87G, for which the self-cleavage was 0.32.

As for A47U U122A, the self-cleavage is 0.87.

Take A22G G83U: the self-cleavage worked out at 0.54.

For A33C A91G, the self-cleavage stood at 1.57.

Turning to U72C U87C, the self-cleavage worked out at 0.22.

Consider A33G A118G, for which the self-cleavage is 0.49.

Take U124C A140U: the self-cleavage stood at 1.14.

For the variant U49C C77U, the self-cleavage is 2.23.

For A56C A129G, the self-cleavage stood at 1.35.

For the variant A95U A98G, the self-cleavage is 1.46.

Consider U120C U127A, for which the self-cleavage is 0.21.

A51G U120C: the self-cleavage is 0.85.

Take A62G A126G: the self-cleavage was found to be 2.05.

With A67G U130C, the self-cleavage is 1.25.

Regarding C16U U72A, the self-cleavage was found to be 0.53.

Take A13G A52G: the self-cleavage was 1.22.

Regarding A13G A52U, the self-cleavage turned out to be 0.84.

Consider C40U U103A, for which the self-cleavage was 1.28.

With A94G U102A, the self-cleavage is 0.96.

A66G G73U: the self-cleavage came out at 0.3.
